Results on 1 molecule are retold here after patent publication US20240285573A1, “PHARMACEUTICAL COMPOSITION FOR PREVENTING OR TREATING DIABETIC EYE DISEASE COMPRISING SGLT-2 INHIBITOR” (priority 2021, published 2024).

The test system of the test is diabetic retinopathy animal model. Put plainly: Retinal fluorescein intensity (fundus imaging) in streptozotocin-induced diabetic retinopathy animal model. It is filed as in vivo, Brown Norway rats (BN/SsN Slc). The settings on record: relative to normal control G1 = 100%, STZ-induced rats, right eye, intravitreal, non-vascular regions of retina. As to the method:
Brown Norway rats (BN/SsN Slc) were used. […] Streptozotocin (STZ) was administered to animals determined to be healthy during the acclimation period, and blood sugar levels were measured on day 7 of administration. […] Streptozotocin was intravenously administered once at a dose of 60 mg/kg on the day of induction. G1 is a normal control in which diabetic retinopathy was not induced, G2 is a control in which diabetic retinopathy was induced and to which the vehicle of Comparative Example 1 was administered, and G3 and G4 are groups to which ranibizumab of Comparative Example 2 was administered as a positive control material, and G5 to G9 are groups to which the SGLT-2 inhibitors according to Examples 1 to 5 were administered, respectively. For intravitreal injection, animals were anesthetized, and a syringe with a 31-gauge needle was used to perform intravitreal injections into the right eye of the respective animals. The test material was administered as a single dose on the day of administration. The injection volume was either 1 μL/eye or 5 μL/eye. […] Retinal examination and efficacy were assessed using retinal fluorescent fundus photographs. […] The relative levels (%) of the measured values for each individual were analyzed, with the average value of the normal control group (G1) as the reference (100%), and comparisons were made between the groups. […]

B1: Ranibizumab (antibody, chains of the INN, looked up, V domains shown)
VH: EVQLVESGGGLVQPGGSLRLSCAASGYDFTHYGMNWVRQAPGKGLEWVGWINTYTGEPTYAADFKRRFTFSLDTSKSTAYLQMNSLRAEDTAVYYCAKYPYYYGTSHWYFDVWGQGTLVTVSS
VL: DIQLTQSPSSLSASVGDRVTITCSASQDISNYLNWYQQKPGKAPKVLIYFTSSLHSGVPSRFSGSGSGTDFTLTISSLQPEDFATYYCQQYSTVPWTFGQGTKVEIK
notes: LUCENTIS® purchased and administered as a positive control; anti-VEGF monoclonal antibody therapy
Regarding B1, the “Fluorescence intensity on 21st day” value is reported as 128.359% (10 μg/eye, 1 μL/eye, once (G4)) and 125.586 ± 14.799 % (50 μg/eye, 5 μL/eye, once (G3)).
